Data from patent US9018171B2, “Uses of an immunomodulatory protein (GMI) from Ganoderma microsporum” (Mycomagic Biotechnology Co., Ltd., priority 2010, dated 2015).
Read-outs that look alike come from different tables or passages of the source.

Experiments:
Assay type in all cases: cell-based
MOLT-4 = assay: NCI60 in vitro screening, Leukemia
NCI-H226 = test system: NCI-H226
HCC-2998 = assay: NCI60 in vitro screening, Colon Cancer
NCI60 tumour cell lines = assay: NCI60 in vitro screening, one dose, whole panel; settings: mean over all cell lines
DU-145 = assay: NCI60 in vitro screening, Prostate Cancer
MDA-MB-468 = assay: NCI60 in vitro screening, Breast Cancer
SF-295 = assay: NCI60 in vitro screening, CNS Cancer

B1: GMI: immunomodulatory protein from Ganoderma microsporum, amino acid sequence SEQ ID NO: 3, manufactured by Mycomagic Biotechnology Co., Ltd. (protein, listed as Ganoderma microsporum)
chain: MSDTALIFTLAWNVKQLAFDYTPNWGRGRPSSFIDTVTFPTVLTDKAYTYRVVVSGKDLGVRPSYAVESDGSQKINFLEYNSGYGIADTNTIQVYVIDPDTGNNFIVAQWN
TGI (MOLT-4; MOLT-4): >1.25E2
Percent Growth (MOLT-4; MOLT-4, Log10 Concentration 0.1): 103%
Percent Growth (MOLT-4; MOLT-4, Log10 Concentration 1.1): 62%
Percent Growth (MOLT-4; MOLT-4, Log10 Concentration 2.1): 1%
Percent Growth (MOLT-4; MOLT-4, Log10 Concentration −0.9): 97%
Percent Growth (MOLT-4; MOLT-4, Log10 Concentration −1.9): 95%
Growth Percent (MOLT-4; MOLT-4, one dose): 44.75%
GI50 (MOLT-4; MOLT-4, in µg/mL): 1.99E1
TGI (NCI-H226; NCI-H226): >1.25E2
Percent Growth (NCI-H226; NCI-H226, Log10 Concentration 0.1): 101%
Percent Growth (NCI-H226; NCI-H226, Log10 Concentration 1.1): 65%
Percent Growth (NCI-H226; NCI-H226, Log10 Concentration 2.1): 23%
Percent Growth (NCI-H226; NCI-H226, Log10 Concentration −0.9): 99%
Percent Growth (NCI-H226; NCI-H226, Log10 Concentration −1.9): 100%
Growth Percent (NCI-H226; NCI-H226, one dose): 83.77%
GI50 (NCI-H226; NCI-H226, in µg/mL): 2.90E1
TGI (HCC-2998; HCC-2998): >1.25E2
Percent Growth (HCC-2998; HCC-2998, Log10 Concentration 0.1): 105%
Percent Growth (HCC-2998; HCC-2998, Log10 Concentration 1.1): 93%
Percent Growth (HCC-2998; HCC-2998, Log10 Concentration 2.1): 88%
Percent Growth (HCC-2998; HCC-2998, Log10 Concentration −0.9): 99%
Percent Growth (HCC-2998; HCC-2998, Log10 Concentration −1.9): 103%
Growth Percent (HCC-2998; HCC-2998, one dose): 132.04%
Growth Percent, Mean (NCI60 tumour cell lines): 64.66%
TGI (DU-145; DU-145): >1.25E2
Percent Growth (DU-145; DU-145, Log10 Concentration 0.1): 109%
Percent Growth (DU-145; DU-145, Log10 Concentration 1.1): 71%
Percent Growth (DU-145; DU-145, Log10 Concentration 2.1): 9%
Percent Growth (DU-145; DU-145, Log10 Concentration −0.9): 99%
Percent Growth (DU-145; DU-145, Log10 Concentration −1.9): 101%
Growth Percent (DU-145; DU-145, one dose): 39.22%
GI50 (DU-145; DU-145, in µg/mL): 2.76E1
TGI (MDA-MB-468; MDA-MB-468): 1.18E1
Percent Growth (MDA-MB-468; MDA-MB-468, Log10 Concentration 0.1): 115%
Percent Growth (MDA-MB-468; MDA-MB-468, Log10 Concentration 1.1): −3%
Percent Growth (MDA-MB-468; MDA-MB-468, Log10 Concentration 2.1): −24%
Percent Growth (MDA-MB-468; MDA-MB-468, Log10 Concentration −0.9): 100%
Percent Growth (MDA-MB-468; MDA-MB-468, Log10 Concentration −1.9): 104%
Growth Percent (MDA-MB-468; MDA-MB-468, one dose): 50.90%
GI50 (MDA-MB-468; MDA-MB-468, in µg/mL): 4.45E0
TGI (SF-295; SF-295): >1.25E2
Percent Growth (SF-295; SF-295, Log10 Concentration 0.1): 101%
Percent Growth (SF-295; SF-295, Log10 Concentration 1.1): 93%
Percent Growth (SF-295; SF-295, Log10 Concentration 2.1): 22%
Percent Growth (SF-295; SF-295, Log10 Concentration −0.9): 100%
Percent Growth (SF-295; SF-295, Log10 Concentration −1.9): 103%
Growth Percent (SF-295; SF-295, one dose): 70.58%
GI50 (SF-295; SF-295, in µg/mL): 5.07E1
